Biological target: T1, GST-p53 fusion protein (UniProt P04637 1-393)
T1 construct: p53 fused to GST
Assay: pull-down; 10 μl GST beads bound with 2 μg of GST or GST-p53, purified Flag-tagged SMG7 proteins in solution; binding buffer BC100 with 1 μg/μl BSA, overnight at 4 °C, five washes, western blot
Conditions: both partners purified

T1 sequence (P04637 whole entry, the tested form may be a part): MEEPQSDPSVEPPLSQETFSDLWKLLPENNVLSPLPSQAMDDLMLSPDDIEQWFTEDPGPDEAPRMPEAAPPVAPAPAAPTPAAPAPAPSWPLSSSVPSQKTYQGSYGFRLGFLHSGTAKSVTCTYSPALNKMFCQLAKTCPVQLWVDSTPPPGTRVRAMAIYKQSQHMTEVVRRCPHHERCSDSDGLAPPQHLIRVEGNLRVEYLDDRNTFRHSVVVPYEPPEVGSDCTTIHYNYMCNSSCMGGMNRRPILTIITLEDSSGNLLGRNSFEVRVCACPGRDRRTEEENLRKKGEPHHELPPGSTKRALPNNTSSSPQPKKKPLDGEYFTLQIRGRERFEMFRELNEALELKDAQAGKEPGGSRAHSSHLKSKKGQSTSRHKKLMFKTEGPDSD

binding result: binds
B1: purified FH-SMG7 C-terminal fragment 815–1091aa (domain or fragment, UniProt Q92540-2 815-1091, looked up)
chain: PSEVKVPEFYWDSSYSMADNRSVMAQQANIDRRGKRSPGVFRPEQDPVPRMPFEKSLLEKPSELMSHSSSFLSLTGFSLNQERYPNNSMFNEVYGKNLTSSSKAELSPSMAPQETSLYSLFEGTPWSPSLPASSDHSTPASQSPHSSNPSSLPSSPPTHNHNSVPFSNFGPIGTPDNRDRRTADRWKTDKPAMGGFGIDYLSATSSSESSWHQASTPSGTWTGHGPSMEDSSAVLMESLKSIWSSSMMHPGPSALEQLLMQQKQKQQRGQGTMNPPH
notes: numbers count on a form of 1091 residues; source: purified; not shown: Flag, N-terminal, kept; HA, N-terminal, kept
